Where two headings read alike, the source gives them in different places. No end group written: not given here. *: point of attachment. Biotin = O=C1N[C@H]2[C@H](CS[C@H]2CCCCC(=O)*)N1
Columns and labels:
[1] = biological target: T1, Peptide #9 (Biotin-SGSGDGNADPNANPNV); assay: BLI, biotin-peptide on streptavidin sensor, IgG1 in solution, 25 C;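 for Response (nm): antibody solution at 30 µg/mL during association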
T1 construct: alanine scan variant; also called Peptide #9 44293
T1 peptide: Biotin-SGSGDGNADPNANPNV

[2] = biological target: T2, Peptide #5 (Biotin-SGSGDGNPDPNANPNV), original sequence of the alanine scan; assay: as above
T2 construct: also called Peptide #5 44289
T2 peptide: Biotin-SGSGDGNPDPNANPNV

[3] = biological target: T3, Peptide #15 (Biotin-SGSGDGNPDPNANANV); assay: as above
T3 construct: alanine scan variant; also called Peptide #15 44299
T3 peptide: Biotin-SGSGDGNPDPNANANV

[4] = biological target: T4, Peptide #12 (Biotin-SGSGDGNPDPAANPNV); assay: as above
T4 construct: alanine scan variant; also called Peptide #12 44296
T4 peptide: Biotin-SGSGDGNPDPAANPNV

[5] = biological target: T5, Peptide #16 (Biotin-SGSGDGNPDPNANPAV); assay: as above
T5 construct: alanine scan variant; also called Peptide #16 44300
T5 peptide: Biotin-SGSGDGNPDPNANPAV

[6] = biological target: T6, Peptide #4 (Biotin-SGSGNPDPNANP); assay: as above
T6 construct: also called Peptide #4 44285
T6 peptide: Biotin-SGSGNPDPNANP

[7] = biological target: T7, Peptide #8 (Biotin-SGSGDGAPDPNANPNV); assay: as above
T7 construct: alanine scan variant; also called Peptide #8 44292
T7 peptide: Biotin-SGSGDGAPDPNANPNV

[8] = biological target: T8, Peptide #1 (Biotin-SGSGKPKHKKLKQPGDGNPDPNANP) (N-terminal biotin); assay: as above
T8 construct: also called Peptide #1 44286
T8 peptide: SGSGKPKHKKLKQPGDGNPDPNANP

[9] = biological target: T9, Peptide #3 (Biotin-SGSGHKKLKQPGDGNPDPNANPN) (N-terminal biotin); assay: as above
T9 construct: also called Peptide #3 44288
T9 peptide: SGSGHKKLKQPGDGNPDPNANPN

[10] = biological target: T10, Peptide #14 (Biotin-SGSGDGNPDPNAAPNV); assay: as above
T10 construct: alanine scan variant; also called Peptide #14 44298
T10 peptide: Biotin-SGSGDGNPDPNAAPNV

[11] = biological target: T11, Peptide #17 (Biotin-SGSGDGNPDPNANPNA); assay: as above
T11 construct: alanine scan variant; also called Peptide #17 44301
T11 peptide: Biotin-SGSGDGNPDPNANPNA

[12] = biological target: T12, Peptide #10 (Biotin-SGSGDGNPAPNANPNV); assay: as above
T12 construct: alanine scan variant; also called Peptide #10 44294
T12 peptide: Biotin-SGSGDGNPAPNANPNV

[13] = biological target: T13, Peptide #7 (Biotin-SGSGDANPDPNANPNV); assay: as above
T13 construct: alanine scan variant; also called Peptide #7 44291
T13 peptide: Biotin-SGSGDANPDPNANPNV

[14] = biological target: T14, Peptide #11 (Biotin-SGSGDGNPDANANPNV); assay: as above
T14 construct: alanine scan variant; also called Peptide #11 44295
T14 peptide: Biotin-SGSGDGNPDANANPNV

[15] = biological target: T15, Peptide #6 (Biotin-SGSGAGNPDPNANPNV); assay: as above
T15 construct: alanine scan variant; also called Peptide #6 44290
T15 peptide: Biotin-SGSGAGNPDPNANPNV

[16] = biological target: T16, Recombinant CSP (Wellcome Trust Sanger Institute, FIG. 22), CSP ectodomain with BirA biotinylation tag, … (Plasmodium falciparum strain 3D7, UniProt Q7K740 19-376, biotinylated at the BirA substrate peptide); assay: SPR, IgG1 captured, CSP as analyte, 40 C; apparent affinity (avidity)
T16 construct: extracellular domain; Expressed in HEK293, 45 kDa; order of the tags is that of the legend, not confirmed; also called biotinylated recombinant CSP

[17] = biological target: T1, Peptide #9 (Biotin-SGSGDGNADPNANPNV); assay: BLI, biotin-peptide on streptavidin sensor, IgG1 in solution, 25 C;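 for Response (nm): antibody solution at 30 µg/mL during association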
[18] = biological target: T2, Peptide #5 (Biotin-SGSGDGNPDPNANPNV), …; assay: as above
[19] = biological target: T3, Peptide #15 (Biotin-SGSGDGNPDPNANANV); assay: as above
[20] = biological target: T4, Peptide #12 (Biotin-SGSGDGNPDPAANPNV); assay: as above
[21] = biological target: T5, Peptide #16 (Biotin-SGSGDGNPDPNANPAV); assay: as above
[22] = biological target: T6, Peptide #4 (Biotin-SGSGNPDPNANP); assay: as above
[23] = biological target: T7, Peptide #8 (Biotin-SGSGDGAPDPNANPNV); assay: as above
[24] = biological target: T8, Peptide #1 …; assay: as above
[25] = biological target: T9, Peptide #3 …; assay: as above
[26] = biological target: T10, Peptide #14 (Biotin-SGSGDGNPDPNAAPNV); assay: as above
[27] = biological target: T11, Peptide #17 (Biotin-SGSGDGNPDPNANPNA); assay: as above
[28] = biological target: T12, Peptide #10 (Biotin-SGSGDGNPAPNANPNV); assay: as above
[29] = biological target: T13, Peptide #7 (Biotin-SGSGDANPDPNANPNV); assay: as above
[30] = biological target: T14, Peptide #11 (Biotin-SGSGDGNPDANANPNV); assay: as above
[31] = biological target: T15, Peptide #6 (Biotin-SGSGAGNPDPNANPNV); assay: as above
[32] = biological target: T17, full CSP protein (analyte of Example 12) (Plasmodium falciparum (isolate 3D7), UniProt Q7K740 19-374); assay: SPR, IgG1 from supernatant on anti-human IgG surface, CSP as analyte, 25 C, 1:1 fit
T17 construct: not shown: C-terminal tags

B1: Antibody 669, human IgG1 (antibody, V domains shown)
VH: QVQLVQSGAEVKKPGASVRVSCKASGFTFTSYAMHWVRQAPGQRLEWMGWINAGNGHTKYSQKFQDRVAITRDTSATTVYMDLSSLRSEDTAVYYCTRDGFCTSTTCSDHYGMDVWGQGTTVTVSS
VL: QSALTQPASVSGSPGQSITISCTGTSSDVGSYNYVSWYQQHPGKAPKFMIYDVSKRPSGVSNRFSGSKSGNTASLTISGLQAEDEADYYCCSYAGSSTWVFGGGTKLTVL
notes: human IgG1; HEK (Expi293F) product; also called AB-000669; Ab669
[1]
  Response (nm): 3.68 nm
[2]
  Response (nm): 3.76 nm
[3]
  Response (nm): 2.82 nm
[4]
  Response (nm): 2.81 nm
[5]
  Response (nm): 3.66 nm
[6]
  Response (nm): 5.27 nm
[7]
  Response (nm): 3.79 nm
[8]
  Response (nm): 5.83 nm
[9]
  Response (nm): 5.06 nm
[10]
  Response (nm): 0.0239 nm
  binding result: no binding (tested: LOD 0.125 nm)
[11]
  Response (nm): 3.85 nm
[12]
  Response (nm): 4.48 nm
[13]
  Response (nm): 3.86 nm
[14]
  Response (nm): 2.18 nm
[15]
  Response (nm): 3.82 nm
[16]
  Kd: 470 pM
  koff: 0.000125 s⁻¹
  kon: 265000 M⁻¹ s⁻¹

B2: Antibody 666, human IgG1 (antibody, V domains shown)
VH: QVQLVQSGAEVKKPGASVKVSCKASGYTFTNYAMHWVRQAPGQRLEWMGWINAGNGNTKYSQNFQGRVTITRDTSASTAYMELSSLRSEDTAVYYCARDEYYASGSYYDYYYYGMDVWGQGTTVTVTS
VL: QSALTQPASVSGSPGQSITISCTGTSSDVGVYNYVSWFQQHPGKAPKLMIYNVSKRPSGVSNRFSGSKSGNTASLTISGLQAEDEADYYCCSYAGSSTWVFGGGTNLTVL
notes: human IgG1; also called Ab666
[16]
  Kd: 180 pM
  koff: 1.7e-05 s⁻¹
  kon: 97000 M⁻¹ s⁻¹
[17]
  Response (nm): 1.75 nm
[18]
  Response (nm): 2.4 nm
[19]
  Response (nm): 0.862 nm
[20]
  Response (nm): 0.0943 nm
[21]
  Response (nm): 2.7 nm
[22]
  Response (nm): 7.06 nm
[23]
  Response (nm): 2.23 nm
[24]
  Response (nm): 9.06 nm
[25]
  Response (nm): 6.53 nm
[26]
  Response (nm): 0.0116 nm
  binding result: no binding (tested: LOD 0.020 nm)
[27]
  Response (nm): 2.95 nm
[28]
  Response (nm): 5.18 nm
[29]
  Response (nm): 2.99 nm
[30]
  Response (nm): 0.982 nm
[31]
  Response (nm): 3.14 nm
[32]
  kon: 1e+08 M⁻¹ s⁻¹

Reference: patent publication US20180362628A1 (KYMAB, published 2018)
